From patent US20130109581A1, “POSITIVELY CHARGED SPECIES AS BINDING REAGENTS IN THE SEPARATION OF PROTEIN AGGREGATES FROM MONOMERS” (priority 2009, published 2013)
Read-outs that look alike come from different tables or passages of the source.

B1: Ac-FKFKKK-Link (Ac-FKFKKK-Ahx-Ahx-Cys-NH2) (peptide)
peptide: FKFKKK
HELM: PEPTIDE1{[ac].F.K.F.K.K.K.[O=C(CCCCCN[*:1])[*:2]].[O=C(CCCCCN[*:1])[*:2]].C.[am]}$$$$V2.0
SMILES: CC(=O)N[C@@H](Cc1ccccc1)C(=O)N[C@@H](CCCCN)C(=O)N[C@@H](Cc1ccccc1)C(=O)N[C@@H](CCCCN)C(=O)N[C@@H](CCCCN)C(=O)N[C@@H](CCCCN)C(=O)NCCCCCC(=O)NCCCCCC(=O)N[C@@H](CS)C(N)=O

What was measured:
[1] = biological target: ADDL (Abeta42 aggregate), P05067; experiment: MPA, serial dilutions in CSF, LoD = 2x over background
[2] = biological target: ASPD (Abeta42 aggregate), P05067; experiment: as above
Abeta42 fibrils, P05067 = experiment: as above
[3] = biological target: Abeta (1-42) aggregates from Alzheimer's Disease Brain Homogenate (human), P05067; experiment: as above
[4] = biological target: Abeta 1-42 globulomer, P05067; experiment: MPA bead capture, CSF + 1 ng/mL globulomer, Abeta immunoassay
[5] = biological target: Abeta 1-42 globulomer, P05067; experiment: 42 (globulomer) RLU over 40 (Abeta 1-40 monomer) RLU
[6] = biological target: Abeta 1-40 monomer, P05067; experiment: MPA bead capture, Abeta 1-40 read-out of the CSF sample (noise)
Abeta 1-40 monomer = Abeta 1-40 monomer (UniProt P05067); experiment: as above
[7] = remark: other sources report otherwise

Binder	average RLU (42) [4] [RLU]	42:40 ratio [5]	further results
B1	2000	5.7	LoD [1]: 300 pg/mL; LoD [2]: 300 pg/mL; LoD (Abeta42 fibrils, P05067): 100 pg/mL; LoD [3]: < 10 pg/mL
KKKFKF (modifications not checked) [KKKFKF-link]	748	3.9	
DFKLNFKF (modifications not checked)	516	2	
AAAKAA (modifications not checked)	114	0.8	
AAKKKA (modifications not checked)	247	1.6	
AKKKKK (modifications not checked)	442	2.5	
IRYVTHQYILWP (modifications not checked) […]	3240	3.2	average RLU (40) [6]: 1010 RLU; average RLU (40) (Abeta 1-40 monomer): 348 RLU
KKKFKF (modifications not checked) [link-KKKFKF]	1650	5.9	
AKKKKA (modifications not checked)	322	2.1	
FKFNLFSG (modifications not checked)	3230	2.4	average RLU (40) [6]: 1330 RLU
ANFFAHSS (modifications not checked)	994	1.8	
AAKKAA (modifications not checked)	160	1.1	
KKKKKK (modifications not checked)			average RLU (42) [4, 7]: 658 RLU; 42:40 ratio [5, 7]: 3.3
FKFSLFSG (modifications not checked)	3080	1.5	average RLU (40) [6]: 2010 RLU
FKFKKK (modifications not checked) [link-FKFKKK]	808	4.1	
